Consider 1 substance from ChEMBL document CHEMBL2074368, “Kinetic analysis of calcein and calcein-acetoxymethylester efflux mediated by the multidrug resistance protein and P-glycoprotein” (Biochemistry, 1998).

This data set relates to CC(=O)OCOC(=O)CN(CC(=O)OCOC(C)=O)Cc1c(OC(C)=O)ccc2c1Oc1c(ccc(OC(C)=O)c1CN(CC(=O)OCOC(C)=O)CC(=O)OCOC(C)=O)C21OC(=O)c2ccccc21. The data set is described as follows: TP_TRANSPORTER: efflux in K562/ADR cells. In kind it is functional, cell-based.

A word on the Km: it is the substrate concentration at which the rate is half of its maximum. Take “ATP-dependent translocase ABCB1 (Homo sapiens)”: the Km was 0.12 µM.
